In patent US20230242902A1, “A HIGHLY ERROR-PRONE […] R[…] FOR TARGETED CONTINUOUS EVOLUTION IN VIVO” (The Regents of the University of California, priority 2017, published 2023):
Numbering of substitutions follows the chain as printed. Names may count otherwise.

B1: V774I, L900S (protein)
chain: MDYKDKALNDLRNVYADFDSLPLDFRQILIKDRATLLQKEDVEKKILERQEDAKKYAEYLKQSEIPERISLPNIKRHKGVSISFEETSEDMVLEPRPFIFDGLNIRCFRRETIFSLKNKILNMVKESSSFKNVSRQSVSFMYFKIFNKGKVIASTKSVNIYEDKIDERLEDLCNNFDDVLKKIIDVTYGYESLFVSETYSYVIFYAKSIYFPQPRCVNNWGNNIPNILTFDSFKLFTANKNNVSCIKQCSRFLWQKDFNTLEEMIEYKNGNICIVTPQLHINDVRDIKSFNDIRLYSESPIKTFSVIDNTITYLFYFKEHLGVIFNITKSRHDRRVTKFSPLSKFSDVKNITVCFDIESYFDPEKESNQVNIPFICCASIIYNKVIGNIVDFEGRDCVAQMIEYVVDICGELNISSVELIAHNGGGYDFHYILSSMYNPAAIKNILIRNNSFISFNFAHDGVKFSVKDSYSFLLCSLANASKAFLNEETFKKTDFPHHDLKTADDLYKVYKEWSSVNTEINHVVEKEKLLITSEHIVNFTKNDKSKTLIEWSKDYCRNDVLVLSKVWLEFKNAVEDIFNCELVDQTMTLAGLSYKLFQANMPFDVELRHPNKEDYFNMREALIGGRCISVNGIYKDVLCLDVKSLYPASMAFYDQPYGSFKRVSSRPKDELGIYYVRVTPNRNNKSNFFPIRSHNKITYNNFEESTYIAWYTNVDIDIGLSEGHNIEYIPFDSYGNIGYSWSKKGKIFEKYIKDVLYKLKIKYEKQNNKVKRNIIKIIMNSLWGKFAQKWVNFEYFIKSEDDIDFESEEAYKIWDTDFMLIKKIKESTYSSKPIQNGVFTLSWARYHMKSIWDAGAKEGAECIYSDTDSIFVHKEHFKKNAKFMLNGLKVPIIGSEVGQSELECEFDKLLCAGKKQYMGFYTYFQDGKPCIKEKKRFKGIPSNYIIPELYAHLLSGADKEAKIQFLKFRREWGSVKGYIENKTVKAT
B2: V774I, F968C (protein)
chain: B1 chain with S900L, F968C
B3: S370P: TP-DNAP2 variant (protein, listed as Kluyveromyces lactis)
chain: MNDELAFLNSQIDDYSDDIEFLRTEVFRINRYSKSIYSLMKNSSKEAIKETIEFNKYGQEIHSKIKEKEISLIEAIKLMEKKYKYLRSLNKTKDKSKKKKIHTKDIETLKTIYKTKADFDIRNFKNAETFTYENYSLLIPSEKELIDLIPEIEEDYSYYFYVSLTITGPTIFGGVTRKVPIIDTYGDINKDFYNKIKENITKVLDRVPFYEEKESEIICKKVLITLTVNKWESIDKWYKNVKSKSKKFKDFTLFLASDTSKNCVQQCVEYLGGKWNTNYSLEKMIPQQKIVTYIPLLMDIQYVQSMEDLISDFDEPNTDCKNIARLLKWNGHMGVITKIDKDVKINRIQRKRIIDVENKEVKEVFFDIEPFSDETKHQIPYLICWSYLGELYYRTGKNCIKEFVEEILSYNVDIILYAWYGSGYDYQHVLPYMKSKCIKDKYIIKNNMITYGELYYENAIIYLKDPYLFILTSLDKASKAFNVINKGEFPHSIIHSWEDLNKILPNWVKIQKRMIEYKDDNKLNIYYKNIEIFENDRNYNTILENAIEYCKVDVLAMEKVWIKFKKLLEKNLNITVSVKTFTLSQLSMKIMESKLPKYVKLYVPTLEEYSKIRNAIYGGRVISKNGIYEENIVYADVVSLYPSAMKLLKHSYGKPKLVDYIDFEKHGIYRVTLLNKHDQEPKNYLNFVPRRINRKLTWEWFKIHEGWYHTYDLIIAKSEGFDIYCHEGFEYPEKDYIFNDFIDTLYSMKETHTACSCEEQPCPIRMVAKIALNGGGYGKFVQKPIDKEIYIVKRDVVAGECDKLQENENGEICIGKRLVKRPLFYNLDSENYDKMIIEKEDEPIYSTQCGISILSASRYRLYKLCKQFENIDIIYSDTDSIFVKQKSVDWELFKSKCGSELGQLDSTIDDTKNAIISKMYIGGAKMYAFEYLNNKNKLITKLHCKGVPNYMLSLNQFKYLMESPDNTIAYKFEIIRRKLVNVITKDLIKDIKQT
B4: S370R: TP-DNAP2 variant (protein, listed as Kluyveromyces lactis)
chain: B3 chain with P370R
B5: S370L: TP-DNAP2 variant (protein, listed as Kluyveromyces lactis)
chain: B3 chain with P370L
B6: S370K: TP-DNAP2 variant (protein, listed as Kluyveromyces lactis)
chain: B3 chain with P370K
B7: S370E: TP-DNAP2 variant (protein, listed as Kluyveromyces lactis)
chain: B3 chain with P370E

Tests used:
p1-encoded leu2 (Q180*) = assay: Large-scale p1 fluctuation tests of p1-encoded leu2 (Q180*), per-base substitution rate; assay type: cell-based, S. cerevisiae; details: per-base substitution rate, p1-encoded leu2 (Q180*), large-scale fluctuation test
Excerpt: All three TP-DNAP1 libraries were screened through small scale p1 fluctuation tests in a metastable S. cerevisiae strain, OR-Y24. OR-Y24 contains w.t. p1 and recombinant p1 that lacks w.t. TP-DNAP1, and instead, encodes a standardized fluorescence reporter of p1 copy number (Table 1), and a disabled version of the LEU2 selection marker (leu2 (Q180*)). As described previously (Ravikumar et al., 2014), leu2 (Q180*) contains a C→T mutation at base 538 in LEU2 at a site permissive to all single point mutants that generate missense mutations. Reversion to functional LEU2 can be detected on medium lacking leucine.
Large-scale fluctuation tests of p1-encoded leu2 (Q180*) were performed to precisely determine per-base substitution rates for individually cloned or isolated TP-DNAP1 variants. Large-scale p1 fluctuation tests are performed similarly to small-scale p1 fluctuation tests, with several modifications. First, large-scale p1 fluctuation tests were typically performed with 36-48 replicates. For highly error-prone TP-DNAP1s obtained from later rounds of screening, fewer replicates (3-16) were used, which is sufficient for similar precision (Foster et al., 2006). Second, p1 copy number was determined by the flow cytometry method, described below. Third, cell titers were measured for each fluctuation test to estimate the average number of cells per culture. Cell resuspensions were diluted and plated on solid SC-UH medium, and colony counts were determined after incubation at 30° C. for 2-3 days. Alternatively, cell resuspensions were diluted and subject to an event-count measurement via flow cytometry. Fourth, inoculums of highly error-prone TP-DNAP 1 s occasionally contained pre-existing mutants, despite the 1:10,000 dilution, so mutant frequencies were estimated by plating pre-cultures on solid SC-UHLW, pH 5.8 medium. Plates were incubated for 2-3 days, in parallel with cultures grown for fluctuation tests. Pre-culture mutant titers were counted to estimate the number of replicates in the fluctuation test expected to contain pre-existing mutants (n). Revertants were counted from all replicates of the fluctuation tests, counts were sorted, and n replicates with the highest counts were omitted from calculations.
To calculate per-base substitution rates, fluctuation data were analyzed by the maximum likelihood method, implemented using newton.LD.plating in rSalvador 1.7 (Zheng, 2017). Phenotypic mutation rates were calculated by normalizing to the average number of cells per culture. Phenotypic mutation rates were divided by the measured p1 copy number and by the number of ways leu2 (Q180*) can revert to LEU2 (2.33 for the ochre codon) to yield per-base substitution rates. 95% confidence intervals were similarly scaled by these factors. All data related to large-scale p1 fluctuation tests are fully described in Table 2.

p2-encoded leu2* = assay: p2 leu2* fluctuation tests in GA-Y021 (p2 mutation rate reporter strain); assay type: cell-based, S. cerevisiae; details: for Per-base substitution rate pf p2: TP-DNAP2 variant in trans, wt TP-DNAP2 in cis, 36 replicates, (95% C.I.); for Fold increase: p2 substitution rate over no variant in trans
Excerpt: For fluctuation tests used to measure p2 mutation rates, leu2* served as a marker for detecting mutational events. leu2* is a disabled version of LEU2, where Q180 is replaced with a TAA stop codon. Q180 is a permissive site where mutation to any other codon other than TAG and TGA results in functional reversion to LEU2. These mutational events can be detected by plating scores of parallel cultures on medium lacking leucine and counting the number distribution of functional LEU2 mutants.
For TP-DNAP2 library screening, each library member was subjected to small-scale leu2* fluctuation tests with six replicates. 190 library members from each yeast library transformation were arrayed and inoculated into liquid SC medium lacking uracil and histidine, and passaged three times at 1:10,000 dilutions. mKate2 fluorescence was measured at every passage on a microplate reader (TECAN Infinite® 200 PRO, settings: λex=588, λem=633) to track p2 copy number stabilization. To perform fluctuation tests, each library member was diluted 1:10,000 into liquid SC medium buffered to pH 5.8 and lacking uracil, histidine, tryptophan, and dilutions were split into six 100 μL replicates. Cultures were grown for 48 hours at 30° C. to reach saturation. Saturated cultures were washed with 200 μL 0.9% NaCl to remove residual leucine and resuspended in 35 μL of 0.9% NaCl. 10 μL of this resuspension was spot plated onto solid SC medium buffered to pH 5.8 and lacking uracil, histidine, tryptophan and leucine. Spot plates were allowed to dry and incubated at 30° C. Colonies were counted after 5 days. Colony counts were used to calculate the expected number of LEU2 functional mutants (m), using the p0 method (Foster, 2006, Methods Enzymol, 409:195-213).
To precisely measure p1 and p2 per-base substitution mutation rates, several modifications were made to the small-scale protocol. First, 36 replicates were performed for reconfirmation of candidate TP-DNAP2 mutators, and 48 replicates for genomic and mutual orthogonality experiments. Titers were also determined for each strain after spot plating by pooling the residual volume from 4 replicates and plating dilutions on YPD. The expected number of LEU2 functional mutants (m) was determined by the Ma-Sandri-Sarkar maximum likelihood estimator (as calculated by the FALCOR tool and corrected for partial plating (Foster, 2006, Methods Enzymol, 409:195-213; Sarkar et al., 1992, Genetica, 85:173-179; Hall et al., 2009, Bioinformatics, 25:1564-1565). The mean mKate2 fluorescence was determined from 50,000 event counts on Attune™ NxT Flow Cytometer and converted to p2 copy number by using a calibration curve. To determine per-base substitution rates, the corrected m was normalized to the average cell titer, the p2 copy number, and the target size for functional leu2* reversion (2.33 bp). 95% confidence intervals were similarly scaled.
To identify error-prone TP-DNAP2s, a small library of TP-DNAP2s diversified at locations hypothesized to be responsible for DNAP fidelity was screened. […] Four distinct site-saturation mutagenesis libraries were generated, each diversifying S370, Y424, L474, or F882 in TP-DNAP2 encoded on pGA55-reTP-DNAP2. Due to unsuccessful attempts to generate a strain with a full deletion of p2-encoded TP-DNAP2 and simultaneous integration of mKate, URA3, and leu2*, each library was transformed into GA-Y021 for convenient screening. However, since GA-Y021 still encodes wt TP-DNAP2 on p2-delORF1-mUL*, p2 mutation rates measured in this format are the result of in tandem replication of p2 by wt TP-DNAP2 and each TP-DNAP2 variant encoded in trans. 6-fold coverage of each library was maintained by picking 190 yeast colonies and passaging under selection for URA3 to stabilize the copy number of p2-delORF1-mUL* in the presence of the newly introduced TP-DNAP2 variants. […]

Molecule | Mutation rate (s.p.b.) (p1-encoded leu2 (Q180*)) | Per-base substitution rate pf p2 (p2-encoded leu2*) | Fold increase (p2-encoded leu2*)
B1 | 1.10 × 10^−7 s.p.b. | – | –
B2 | 1.14 × 10^−7 s.p.b. | – | –
B3 | – | 50.1 (32.4-70.4) ×10^−10 | 8.4
B4 | – | 31.9 (22.4-42.5) ×10^−10 | 5.3
B5 | – | 14.8 (9.32-21.1) ×10^−10 | 2.5
B6 | – | 26.2 (18.0-35.4) ×10^−10 | 4.4
B7 | – | 27.9 (19.7-37.2) ×10^−10 | 4.7
